The text below walks through data of patent US20120093813A1 (Pfizer, published 2012).

“And” between values parts separate entries of the source, which are not always exact repeats. Equal values may be shown once. A value given as a limit tells only on which side of the number the result lay.

Test [1] deals with Notch1 of HPB-ALL cells (human, UniProt P46531 19-2555). Put plainly: cell-based or functional assay.
In test [2] the target is T1, human Notch1-NRRHD (human, UniProt P46531 19-43; P46531 1446-1733).
T1 construct: domain: Notch1-NRRHD (nucleotide 1-129);domain: Notch1-NRRHD (nucleotide 4338-5202); If counted from the start codon they are about residues 1-43 and 1447-1734 (my conversion); Used as conditioned medium; also called huN1-NRRHD; human Notch1 antigen
T1 sequence (looked up): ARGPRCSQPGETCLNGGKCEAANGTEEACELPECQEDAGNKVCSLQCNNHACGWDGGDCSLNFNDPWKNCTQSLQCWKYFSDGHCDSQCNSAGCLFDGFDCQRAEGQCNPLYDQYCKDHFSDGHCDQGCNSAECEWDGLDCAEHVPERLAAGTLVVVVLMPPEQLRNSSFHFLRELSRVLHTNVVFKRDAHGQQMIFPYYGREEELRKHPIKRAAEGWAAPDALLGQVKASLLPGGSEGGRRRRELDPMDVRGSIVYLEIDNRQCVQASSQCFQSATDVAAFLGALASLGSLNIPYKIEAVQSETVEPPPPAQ
The experiment in a line: ELISA on coated conditioned medium. From the text: (§1) We further made domain-swap chimeric Notch1-NRRHD expression constructs using the human Notch1-NRRHD sequence (Nucleotide 1-129 and 4338-5202, NCBI Accession # NM_{—}017617) as frame work, systematically exchanged the human Lin-A, Lin-B or HD-C domains with the corresponding mouse domains.
(In general: An ELISA detects its analyte on a solid surface through an enzyme-linked reagent.)

Test [3] has as its target T2, murine Notch1-NRRHD (mouse, UniProt Q01705 19-33; Q01705 1443-1723).
T2 construct: domain: Notch1-NRRHD (nucleotide 1-99);domain: Notch1-NRRHD (nucleotide 4327 to 5169); Nucleotide limits only; if counted from the start codon they are residues 1-33 and 1443-1723 (my conversion); Used as conditioned medium; also called MuN1-NRRHD; mouse Notch1
T2 sequence (looked up): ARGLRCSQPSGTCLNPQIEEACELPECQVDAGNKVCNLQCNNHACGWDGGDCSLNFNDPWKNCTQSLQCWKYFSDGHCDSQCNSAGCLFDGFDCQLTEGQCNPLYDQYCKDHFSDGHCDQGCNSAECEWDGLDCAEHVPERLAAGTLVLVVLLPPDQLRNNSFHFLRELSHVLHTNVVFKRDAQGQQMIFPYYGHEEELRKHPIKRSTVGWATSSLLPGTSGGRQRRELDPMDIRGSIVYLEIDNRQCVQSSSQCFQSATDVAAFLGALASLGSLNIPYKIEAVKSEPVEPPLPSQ
Put plainly: ELISA on coated conditioned medium.
Description: as §1

Test [4] concerns the target T3, Notch1 chimeric antigen, Lin-B domain swapped with murine sequence.
T3 construct: also called Mu/Lin-B
The experiment in a line: ELISA on coated conditioned medium.
Description: as §1

Test [5] addresses T4, Notch1 chimeric antigen, HD-C domain swapped with murine sequence.
T4 construct: also called Mu/HD-C
The experiment in a line: ELISA on coated conditioned medium.
Description: as §1

The target in test [6] is T5, N1-NRR-TM(-)/Fc fusion protein (human).
T5 construct: Secreted from 293-F cells, purified on protein G; also called Notch1-NRR-TM(-)/Fc; N1-NRR-TM(-)Fc protein; not shown: Human Fc of the Fc-fusion vector, fused C-terminal of the immunogen, plus any junction residues
T5 chain: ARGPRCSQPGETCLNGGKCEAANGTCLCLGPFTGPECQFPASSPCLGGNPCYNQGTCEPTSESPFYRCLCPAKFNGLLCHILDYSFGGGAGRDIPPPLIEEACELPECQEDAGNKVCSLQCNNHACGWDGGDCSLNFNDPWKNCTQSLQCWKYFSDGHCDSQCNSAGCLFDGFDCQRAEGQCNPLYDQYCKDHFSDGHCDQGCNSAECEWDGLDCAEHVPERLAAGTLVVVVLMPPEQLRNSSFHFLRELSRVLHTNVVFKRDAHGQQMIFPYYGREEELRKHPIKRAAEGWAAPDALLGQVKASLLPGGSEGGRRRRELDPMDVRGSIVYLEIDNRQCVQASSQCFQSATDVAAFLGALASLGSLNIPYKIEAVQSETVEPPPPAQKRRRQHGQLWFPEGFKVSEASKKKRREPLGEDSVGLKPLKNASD
Put plainly: SPR, Biacore 3000, N1-NRR-TM(-)Fc captured on Protein A, mAb injected. As to the method:
Protein A was amine-coupled at saturating levels onto the chip using a standard N-hydroxysuccinimide/ethyldimethylaminopropyl carbodiimide (NHS/EDC) chemistry. N1-NRR-TM(−)Fc protein (described in Example 1) was captured to the chip surface by Protein A in all three flow cells at 40, 13, 4 ug/ml. […] Dissociation was monitored for 20 minutes. The chip was regenerated after the last injection of each titration with two 30 second pulses of 100 mM phosphoric acid. Buffer cycles provided blanks for double-referencing the data, which were then fit globally to a simple binding model using Biaevaluation software v.4.1. Affinities were deduced from the quotient of the kinetic rate constants (KD=koff/kₒₙ).

Test [7] has as its target T6, Notch1 chimeric antigen, Lin-A domain swapped with corresponding Notch2 domain.
T6 construct: Used as conditioned medium of transfected 293-F cells
Put plainly: ELISA, conditioned medium of chimeric antigen coated, 300 ng mAb per well. How it is done:
(§2) For understanding the mechanism of action by Notch1-antagonist mAb, binding epitopes of Notch1-antagonist mAbs were analyzed by domain swap and ELISA binding assay. The Notch1-NRR-TM(−)/Fc protein was divided into six domains: EGF (including EGF35-36), Lin12-A (or Lin-A), Lin-B, Lin-C, heterodimerization domain-N (or HD-N) and HD-C (FIG. 5). Each of the domains were swapped for that corresponding to human Notch2 by PCR synthesis in a series of chimeric Notch1-NRR-TM(−)/Fc expression constructs. The domain-swap plasmids were transfected in Freestyle™ 293-F cells (Invitrogen, Inc., Calsbad, Calif.) using Freestyle™ Max Reagent (Invitrogen) as described above in Example 1. After being cultured for three days, the conditioned media was subjected to Western blot analysis and an ELISA binding assay by Notch1 mAbs.
(§3) In ELISA assay, the 100 microliters of the conditioned medium from the above antigen plasmids-transfected cell culture were loaded in each well of the 96-well plate, and plates were incubated at room temperature for 4 hours or 4° C. for overnight. The condition medium was then removed from the coated plates. For primary antibody binding, 300 ng of each mAb (Table 3) in 100 microliters of PBS was added to the coated well. The rest of the ELISA procedure is the same as described in Example 2.

Test [8] addresses T7, Notch1 chimeric antigen, Lin-C domain swapped with corresponding Notch2 domain.
T7 construct: Used as conditioned medium of transfected 293-F cells
The test is described as above. How it is done:
as §2, §3

For test [9], the target named is T8, Notch1 chimeric antigen, HD-N domain swapped with corresponding Notch2 domain.
T8 construct: Used as conditioned medium of transfected 293-F cells
The description is as above. How it is done: as §2, §3

Test [10] has as its target T9, Notch1 chimeric antigen, HD-C domain swapped with corresponding Notch2 domain.
T9 construct: Used as conditioned medium of transfected 293-F cells
The test is described as above. How it is done:
as §2, §3

Test [11] addresses T10, Notch1 chimeric antigen, EGF domain swapped with corresponding Notch2 domain.
T10 construct: Used as conditioned medium of transfected 293-F cells
The description is as above. How it is done: as §2, §3

Test [12] has as its target T2, murine Notch1-NRRHD. Put plainly: heading printed under Table 3; it introduces the following ELISA experiment with human and murine Notch1-NRRHD.
Description: as §1

One may read the Kd as the constant that tells how readily two partners part at equilibrium. Higher therefore signals a looser complex. What is called koff is the first-order rate constant of dissociation. Low readings indicate a long-lived complex, high ones a short-lived complex.

B1: mouse monoclonal antibody N248A (antibody, IgG1, V domains shown)
VH: QVQLQQSGAELMKPGASVKISCKATGYTFSNYWMEWVKQRPGHGLEWIGEILPGRGRTNYNENFKGKATFTADTSSNTVYMQLNSLTSEDSAVYYCARFHSSAYYYTMDYWGQRTSVTVSS
VL: QAVVTQESALTTSPGETVTLTCRSSTGAVTTSNYANWVQEKPDHLFTGLIGGTNNRAPGIPARFSGSLIGDKAALTITGAQTEDEAIYFCALWYSNHWVFGGGTKLTVL
notes: treated as one antibody; also called mAb N248A; N248A1
Consider B1, for which the “IC50 of cell growth inhibition, HPB-ALL cells, 7 days” value in test [1] was ~0.78 µg/ml and ~5.2 nM. Besides, the ELISA reading in test [2] worked out at 3.13; in [3], 0.17; in [4] it was 3.37; in [5], 3.17; in test [7], 0.05; in test [8], 3.48. Also, the ELISA reading in test [9] worked out at 3.52; in test [10], 0.04; in test [11], 3.51. The Kd in [6] is below 0.33 nM. Moreover, the koff in [6] was below 0.00017 s⁻¹. Besides, in test [12], the binding result is “no binding”.
